Results from US20230331848A1 (BIOSION, published 2023).
Where two headings read alike, the source gives them in different places.

Columns and labels:
[1] = molecular target: T1, cynomolgus PD-1-his protein (Cat#:PD1-05223, Acro biosystems Inc.) (cynomolgus, UniProt B0LAJ3 25-170); assay: indirect ELISA on coated cynomolgus PD-1-his
T1 construct: Bought protein used in Biacore and indirect ELISA; also called monkey PD-1; Cyno PD-1

[2] = molecular target: T1, cynomolgus PD-1-his protein …; assay: SPR (Biacore T200), antibody captured on Protein G chip, PD-1-his in flow, 1:1 fit
[3] = molecular target: T2, in house made human PD-1-Fc protein (human, biotin-labeled (sites not given)); assay: blocking FACS: biotin human PD-1-Fc + antibody on GS-C2/PD-L1 cells (competitor: cell-surface human PD-L1)
T2 construct: also called biotin-labeled human PD-1-Fc
Description: (§1) GS-C2/PDL1 cells were harvested from cell culture flasks at the log phase, washed twice and re-suspended in PBS containing 2% v/v Fetal Bovine Serum (FACS buffer). GS-C2/PD-L1 cells, 0.6×10⁵ cells per welt, were incubated in 96 well-plates with 100 the antibody/PD1-Fc mixture for 40 minutes at 4° C. Cells were washed twice with FACS buffer, added with 100 R-Phycoerythrin Streptavidin (1:500 dilution in FACS buffer, Cat#:016-110-084, Jackson Immunoresearch), and incubated for 40 minutes at 4° C. in dark. Cells were washed twice and re-suspended in FACS buffer. Fluorescence was measured using a Becton Dickinson FACS Canto II-HTS equipment. Data was analyzed using Graphpad Prism software and IC₅₀ values were reported.

[4] = molecular target: T2, in house made human PD-1-Fc protein; assay: competitive ELISA: soluble Pembrolizumab pre-mixed with biotin-labeled human PD-1-Fc, added to coated Pembrolizumab (self-competition); unit from the axis 'Con of mAb, nM.'
[5] = molecular target: T2, in house made human PD-1-Fc protein; assay: competitive ELISA: antibody pre-mixed with biotin-labeled human PD-1-Fc, added to coated human PD-L1-Fc (blocked ligand); unit from the axis 'Con of mAb, nM.'
Description: (§2) The activities of the anti-PD1 antibodies of the disclosure to block PD-L1-PD1 binding were measured in a competitive ELISA.
(§3) Briefly, 100 μl human PD-L1-Fc protein (prepared in-house with SEQ ID NO: 28) at 2 μg/mL in carbonate/bicarbonate buffer (pH 9.6) was coated on 96-well micro plates overnight at 4° C., Plates were washed with wash buffer (PBS+0.05% w/v Tween-20, PBST), and blocked with 5% w/v non-fatty milk in PBST for 2 hours at 37° C. […] After incubation at 37° C. for 40 minutes, plates were washed using wash buffer. […] Plates were washed again using wash buffer. Finally, TMB was added and the reaction was stopped using 1M H₂SO₄. The absorbance was read on a microplate reader using dual wavelength mode with 450 nm for TMB and 630 nm as the reference wavelength, then the OD (450-630) values were plotted against antibody concentrations. Data was analyzed using Graphpad Prism software and IC₅₀ values were reported.

[6] = molecular target: T1, cynomolgus PD-1-his protein …; assay: indirect ELISA on coated cynomolgus PD-1-his; unit from the axis 'Con of mAb, nM.'
Description: (§4) Briefly, 96-well micro plates were coated with 100 μl 2 μg/ml mouse PD-1-his (Cat#:50124-M08H, Sino Biological Inc) or 2 μg,/ml cynomolgus PD-1-his (Cat#:PD1-05223, Acro biosystems Inc.) in carbonate/bicarbonate buffer (pH 9.6) for 2 hours at 37° C. Plates were washed once with wash buffer (PBST, PBS+0.05% Tween-20) and then blocked with 200 μl blocking buffer (5% w/v non-fatty milk in PBST) for 2 hours at 37° C. […] ELISA plates were washed 4 times and incubated with Peroxidase AffiniPure goat anti-mouse IgG, Fcγ Fragment Specific (1:5000 dilution in PBST buffer, Cat#:115-035-071, Jackson ImmunoResearch Laboratories, Inc., 100 μl/well) or Peroxidase AffiniPure F(ab′)₂ Fragment Goat Anti-Human IgG, Fcγ fragment specific (Cat#:109-036-098, Jackson ImmunoResearch, for the controls) for 40 minutes at 37° C. After a final wash, plates were incubated with 100 μl/well TMB (Cat#:TMB-S-002, innoreagents) at room temperature. The reaction was stopped 3-10 minutes later with 50 μl/well 1M H₂SO₄, and the absorbance was read on a microplate reader using dual wavelength mode with 450 nm for TMB and 630 nm as the reference wavelength. Then the OD (450-630) values were plotted against antibody concentrations. Data was analyzed using GraphPad Prism software and EC₅₀ values were reported.

[7] = molecular target: T1, cynomolgus PD-1-his protein …; assay: as above; remark: listed apart in the source
Description: as §4

[8] = molecular target: T2, in house made human PD-1-Fc protein; assay: capture ELISA: antibody captured on anti-human IgG coated plate, biotin-labeled human PD-1-Fc detected with streptavidin-HRP; unit from the axis 'Con of mAb, nM.'
[9] = molecular target: T2, in house made human PD-1-Fc protein; assay: cell-based blocking FACS: antibody pre-mixed with biotin-labeled human PD-1-Fc, added to GS-C2/PD-L1 cells expressing human PD-L1 (blocked ligand); unit from the axis 'Con of mAb, nM.'
Description: as §1

[10] = molecular target: T2, in house made human PD-1-Fc protein; assay: competitive ELISA: antibody pre-mixed with biotin-labeled human PD-1-Fc, added to coated human PD-L1-Fc (blocked ligand); unit from the axis 'Con of mAb, nM.'; remark: listed apart in the source
Description: as §2, §3

[11] = molecular target: T2, in house made human PD-1-Fc protein; assay: competitive ELISA: soluble Pembrolizumab pre-mixed with biotin-labeled human PD-1-Fc, added to coated Pembrolizumab (self-competition); unit from the axis 'Con of mAb, nM.'; remark: listed apart in the source
[12] = molecular target: T2, in house made human PD-1-Fc protein; assay: capture ELISA: antibody captured on anti-human IgG coated plate, biotin-labeled human PD-1-Fc detected with streptavidin-HRP; unit from the axis 'Con of mAb, nM.'; remark: listed apart in the source
[13] = molecular target: T3, human PD-1-his protein (Cat#:PD1-H5221, Acro biosystems Inc.) (human, UniProt Q15116 25-167); assay: BLI (Octet RED96), cell supernatant antibody captured on AHC sensor, human PD-1-his in solution
T3 construct: not shown: his tag
Description: Briefly, AHC biosensors (anti-human IgG Fe capture, from ForteBio) were presoaked with 10 mM glycine (pH 1.5) for 3 seconds, and then dipped in a well with running buffer (0.5% w/v BSA in PBST) for 3 seconds, the soaking and dipping steps were repeated for three times. […] A new baseline was run for 100 seconds in another well with running buffer. Then the sensors were dipped in a well with serially diluted human PD-1-his protein (Cat#:PD1-H5221, Acro biosystems Inc., starting at 100 nM with a two-fold serial dilution) in running buffer for 120 seconds, and then immersed in a baseline well for […]. Finally, sensors were presoaked with 10 mM glycine (pH 1.5) for 30 seconds, and then were dipped in a well with running buffer for 30 seconds. The association and dissociation curves were fit to a 1:1 Langmuir binding model using ForteBio Data Analysis 8.1 evaluation software.

EC50 [1] [nM]	Kd [2] [nM]	IC50 [3] [nM]	IC50 [4] [nM]	IC50 [5] [nM]	EC50 [6] [nM]	EC50 [7] [nM]	EC50 [8] [nM]	IC50 [9] [nM]	IC50 [10] [nM]	IC50 [11] [nM]	EC50 [12] [nM]	Binder	binding result [13]
0.23	5.64	0.52										Nivolumab (antibody, V domains shown) VH: QVQLVESGGGVVQPGRSLRLDCKASGITFSNSGMHWVRQAPGKGLEWVAVIWYDGSKRYYADSVKGRFTISRDNSKNTLFLQMNSLRAEDTAVYYCATNDDYWGQGTLVTVSS VL: EIVLTQSPATLSLSPGERATLSCRASQSVSSYLAWYQQKPGQAPRLLIYDASNRATGIPARFSGSGSGTDFTLTISSLEPEDFAVYYCQQSSNWPRTFGQGTKVEIK	
0.2		0.49	0.0735	0.37	0.093	0.0957	0.118	0.32	0.345	0.0759	0.113	Pembrolizumab (antibody, V domains shown) VH: QVQLVQSGVEVKKPGASVKVSCKASGYTFTNYYMYWVRQAPGQGLEWMGGINPSNGGTNFNEKFKNRVTLTTDSSTTTAYMELKSLQFDDTAVYYCARRDYRFDMGFDYWGQGTTVTVSS VL: EIVLTQSPATLSLSPGERATLSCRASKGVSTSGYSYLHWYQQKPGQAPRLLIYLASYLESGVPARFSGSGSGTDFTLTISSLEPEDFAVYYCQHSRDLPLTFGGGTKVEIKR	
												humanized antibody huE1A9C8A7-V3 (antibody, human IgG4 S228P, kappa, V domains shown, Human IgG4/kappa) VH: QVQLVQSGAEVVKPGASVKISCKASGYTFSDYVMHWVRQAPGQSLEWIGVISTYHIPAVYNQKFKGKATMTVDKSTSTVYLELSSLRSEDTAVYYCAREVYGDSYYFDVWGQGTTVTVSS VL: DIVMTQTPLSLPVTPGEPASISCRSSQSIVHSNGNTYLEWYLQKPGQSPQLLIYKVSNRFSGVPDRFSGSGSGTDFTLKISRVEAEDVGVYYCFQGSHVPYTFGGGTKVEIKR	no binding (tested: antigen series starting at 100 nM)
